What was measured:
[1] = target: human C3aR on Chinese hamster ovary cells stably expressing C3aR (CHO-C3aR) (human) (UniProt Q16581)
[2] = target: human C3aR of human monocyte-derived macrophages (HMDMs) (human (endogenous in HMDMs)) (UniProt Q16581)
C5aR2 = target: T1, C5aR2 (Homo sapiens, UniProt Q9P296); experiment: BRET β-arrestin […] recruitment to C5aR2 in transfected HEK293 cells (partial agonist); type: cell-based
T1 construct: human C5aR2-Venus
T1 sequence (Q9P296 whole entry): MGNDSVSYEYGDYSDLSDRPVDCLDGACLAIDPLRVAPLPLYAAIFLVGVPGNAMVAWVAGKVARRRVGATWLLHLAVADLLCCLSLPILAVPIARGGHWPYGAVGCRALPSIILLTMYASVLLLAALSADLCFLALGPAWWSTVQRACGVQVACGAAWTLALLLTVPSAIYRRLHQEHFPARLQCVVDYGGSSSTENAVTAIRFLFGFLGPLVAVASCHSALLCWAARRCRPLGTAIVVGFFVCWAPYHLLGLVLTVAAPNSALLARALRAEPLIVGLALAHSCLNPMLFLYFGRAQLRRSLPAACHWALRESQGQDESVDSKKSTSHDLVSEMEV

Sequence of purified human C3a (P01024 672-748): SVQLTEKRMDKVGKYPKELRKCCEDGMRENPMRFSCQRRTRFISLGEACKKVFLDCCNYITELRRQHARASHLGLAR
Sequence of human C3aR of human monocyte-derived macrophages (HMDMs) (human (endogenous in HMDMs)) (Q16581 whole entry): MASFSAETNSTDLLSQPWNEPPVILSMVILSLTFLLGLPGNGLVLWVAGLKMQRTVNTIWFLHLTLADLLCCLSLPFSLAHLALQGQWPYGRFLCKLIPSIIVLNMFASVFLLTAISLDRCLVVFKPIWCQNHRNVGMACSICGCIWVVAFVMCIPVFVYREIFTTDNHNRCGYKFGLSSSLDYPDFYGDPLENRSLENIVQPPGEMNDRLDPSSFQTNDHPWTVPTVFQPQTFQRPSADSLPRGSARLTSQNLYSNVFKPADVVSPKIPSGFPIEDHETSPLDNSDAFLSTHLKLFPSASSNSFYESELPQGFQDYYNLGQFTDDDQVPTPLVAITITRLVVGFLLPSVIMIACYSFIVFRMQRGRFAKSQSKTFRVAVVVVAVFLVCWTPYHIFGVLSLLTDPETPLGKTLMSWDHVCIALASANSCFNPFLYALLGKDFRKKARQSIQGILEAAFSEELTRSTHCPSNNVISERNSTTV
Sequence of human C3aR on Chinese hamster ovary cells stably expressing C3aR (CHO-C3aR) (human) (Q16581 whole entry): as above

Row | Compound | phosphorylation of ERK1/2 in CHO-C3aR cells (AlphaLISA, 10 min), EC50 [1] [nM] | phosphorylation of ERK1/2 in HMDMs (AlphaLISA, 10 min), EC50 [2] [nM] | EC50 (C5aR2) [nM]
1 | purified human C3a (from UniProt P01024 672-748) (ligand) | 0.39 | 0.21 | 
2 | N=C(N)NCCC[C@H](NC(=O)COCC(c1ccccc1)c1ccccc1)C(=O)O [SB290157] |  |  | 16100

Reference: paper PMC7859635, “The “C3aR Antagonist” SB290157 is a Partial C5aR2 Agonist” (Frontiers in Pharmacology, 2021)
